Test results taken from the DeepSol protein solubility set.

Assay: soluble on expression in E. coli; label from the status in PepcDB or PDB records

Sequence	soluble on expression in E. coli
MKHEIKHDPAFRALTPKWHHGYRFQYEPAQKAHVVLYPEGMIKLNDSASLIGGLIDGERTIAAIIAELQREFPNIPELGMDVDDFMKVAKEKYWIDLV	not soluble
MNMSRHDEFGGSTNKGPVQEHDVIMRGRRLLDITGVKQVESFDNEEFLLETVMGFLAIRGQNLQMKNLDVDKGVVSIKGRIFDLVYLDDHQEKAKGFFSKLFK	not soluble
MASEMIVDHRQKAFELLKVDAEKILKLIRVQMDNLTMPQCPLYEEVLDTQMFGLSREIDFAVRLGLVDEKDGKDLLYTLERELSALHDAFTAK	soluble
MARKTKQQALETRQHILDVALRLFSQQGVSATSLAEIANAAGVTRGAIYWHFKNKSDLFSEIWELSESNIGELEIEYQAKFPDDPLSVLREILVHILEATVTEERRRLLMEIIFHKCEFVGEMVVVQQAQRSLCLESYDRIEQTLKHCINAKMLPENLLTRRAAILMRSFISGLMENWLFAPQSFDLKKEARAYVTILLEMYQLCPTLRASTVNGSP	not soluble
MSLANSKVYAIPTTCNSGIFVGRAENLDAIDIMKDPNYTGKVSIVGFDVANCSDNNSDDNHKNHNETAIGNGPTPKWHNSNYTSDFLNVAQQGKDTMISATLPNPVPSQEIGSVGQIAYGSQISDADFKELASVDIKNINQSSPYFVRNYGQMVSKLGDIIEKYHTELMDSNGNATIYLRPFHEMNSPWLWWGFKNQDDFKNLWIHLHNYLVNDRKFTWLKFCFAASAGDPSLDPAHVKGANSYYPGNNYVDTVALDGYSDDPSNDSGIKKQYAELTATGKPFGFAELGAKVDGDFVNVPNERTQQNVETRPFNYQKWSDAIQKYYSNAKYCIVFGGAYDPRNNLHGTSLFSNEGHHHHHH	soluble
MGSDKIHHHHHHMKRDFLGRTLAVIEDLSVEEQMFLYEKTRELKQRWYSGEDVSDFRIKKRNVGIYIVFVEPSTRTKESFINAAKFHSGPNVKVNVFDSEHSSFNKQESYTDTFSMLTGYSDYSIFVVRTRLEGVCRLLERRISEFASRNGIEVPSFINAGDGKHEHPTQELLDEYTFLEQNGFDNSFIHVALVGDLLHGRTVHSKVNGLKIFKNVKVDLVAPEELMMPEHYVEKMKKNGFEVRIFSSIREYLDQKDVAKIWYFTRLQLERMGEDILEKVHVLREAVTFKKEYLDALPEGVKFYHPLPRHKVYPTIPNFLDTLPLNGWETQARNGYWVRIVLLSMFGGALEAPFDTSKKEEKPEEDFIIPAPITHGSKGVQKEGKRGIKPIENGTVIDHIAKGKTPEEIYSTILKIRKILRLYDVDSADGIFRSSDGSFKGYISLPDRYLSKKEIKKLSAISPNTTVNIIKNSTVVEKYRIKLPPTIYGFEELRCKNENCITNPAHGENASPSFVRNEKGQFICEYCETPHSFEEIWSI	not soluble
MAHHHHHHMRLTASRALLQQAGEMCTALHWMCRIAARVPESGLSGSQLQALLDDEFPSFSPSEVGAVTLKEAVLRFPELLSVEDGSQLQAKWRVRPTHAHKTQEQRASPSSKPTETYTLPMMKLQQFCTKRARMHRNTYMPLEYVLSKADITDVNIVGEVLHNPDAALDVQAGVRIKPKRTPRAVVAFVDGDALPAVAVDEMCNELNVLKESSIVTIVRQPGSHELSAVDIVCPDVIPTYLSIEKHAHELRLRRPNVRHDVVYMCAASQFNIYADRVALLNDFPDADVYVCCPSMIALVKPKKVIPFE	soluble
MGSDKIHHHHHHMYLVEVFFTYRQPQKLPISNISYLINQIIEQWRYNGQIIGREIPLFVAVQNNEEGFALRVTCPEQQSLLPTFNNIQVDKALKQAKSAGIFFDSFQIIADDLNSDITYSKEVATWQVLYTTYLQSCSPLHSGDNLLPIPLYKQFKNIPHLSMDIIKWQENWQACDQLQMNGSILEQQALYEISDFNSHLTKHGYYLTQEIEKHTGIPTFYYLYRIGGDDLQSEQQRLCPNCQQKWHLDKPLFNLFHFKCDHCRLVSNLSWHWQ	not soluble
GPGSMWGPNQEVAHPRHDGKSFYLPSTSAAGAAALGASLLPHSNLVCAPLNPHIAREPVDTATGDGDGTVRALLTRFRIENERLRDQVKAHVVQEALLTQRLQELSARNTALHLQDFRKRDNDAVVEKLKKQLEVKEMEVRALQLQVGELNGRISAYEEAISRPDHPQGLSANSMDRVRELICEALSSAGFLTRVANAVEHCHPSTHEVTDCPRSVEECTNHCLQAAMRGNKELPGETAARGHHVSCEELASALREEVLFCETVAVRVAAKLFMERSSADSSAKADRGTGLQHQEESAPPLARPTAECPAEAHELPQSDRRPRRKPAARPTVEDCEVQ	not soluble
MILKRAYDVTPQKISTDKVRGVRKRVLIGLKDAPNFVMRLFTVEPGGLIDRHSHPWEHEIFVLKGKLTVLKEQGEETVEEGFYIFVEPNEIHGFRNDTDSEVEFLCLIPKEGGE	not soluble
MGSDKIHHHHHHMNINISGKRVLVTASTEGIGRGIAEAFLREGCNVVISSRNKDKIEKAILEMRKIGPSVWGFPADLTDFKSLEELVGYALKIMNGIDILVVNSGNPPKEPSYFFENTMEDWEYATKLYLLSAIKLTNLVYQYMKAQRWGRIFFLSSWTIKEPQRIFSLADITRAPLIQMAKLLSKELGEYNVNVNVILMGSFETEGAKRSLKKYAEKVGQPLDVIWKREVISQIPIGRTGDIKNELGSLLVFLSSDYAGYINGTSILIDGGMSRAI	not soluble
MAHHHHHHMYSQRLSRVSPYLSNGSLSPRRFYEMLRRYATENLRDNFVQMQYREALLRLSRRDYWHWMGLRYGTLLFFPYGPRPEQTDNIPDWRHDEKIVQKWCAGLTGVPFADAAMRELLTTGFVAHEGRQALAWLLTRGYGQDWRLGAEWLERCSLDYDPFLCYGNFAYFSELILDDFGEPVRSVHWLAHHHDQTGIYVKKWLPLLSKIPPVYIHRPHVLTPRMQAMHGVRLGKTYPYPLKLWDGAQYMLGSDELTTYFDDSSAWHRKTKSGAGGPGHAEALRHGKAIMKVREWNAAILPEEVAQRPWAHHLPASAFESSEDEVETLQMRQRNQNQPTRHGQLSL	not soluble
GHMIQESTMEMTNAQRLILSNQYKMMTMLDPANAERYRRLQTIIERGYGLQMRELDREFGELKEETCRTIIDIMEMYHALHVSWSNLQDQQSIDERRVTFLGFDAATEARYLGYVRFMVNVEGRYTHFDAGTHGFNAQTPMWEKYQRMLNVWHACPRQYHLSANEINQIINA	soluble
MAHHHHHHMKPLAPFVCRLPSRRILRVRGTDAHDFLQGIFTNDLRELHPAGSMYGCFLYFTGRVLCDAHLYQCKQVHEGQASILVDVHERSATELLDHLTEMKMRKKVHIDDVGKELVVLAALEETSADAQRSRDSASGCDARESSVTSLSPETLEERHTECFLDPRNDALFPRPPPPSSSSPPAAVTSPSFCLRKCVVPATWAPPLSSPDSYTTLLYSRGIGEGPDVFKCNKSLPFEGNLDFLKGVSFHKGCYVGQELTHRTHVMLVTRKRTVPLHFGPANVDPPAAGIITDEGAVTKTWPVEVGEPLYSAAREKIGEVTGVCGQVGIGLFRLRYVDKATHTVPGLQLKDGTPVQTHLPDWWPRKDVKKLLQNNS	soluble
MLELVQKGITPEDAITAGKKARKYFELTYYVMPGLGGRERSEQHAVNTARVINKAQPTFVRLRTLTVIEGTPIEKLVGKEITLLGPVEQLEEVRRLVEEIKVETLLLSDHVSNYLFTRSGPIFFGVSGKLPDEKEQMLEQVDDAIKTVKLLEESGERVFNSNDMYRMGLIGL	not soluble
MGSDKIHHHHHHMDGTRERPMRKIIAATFVSLDGVMQAPGGPEEDPVGGFKFGGWTFHYFDEVGGAAMDELFSKPFTLLLGRRTYDIFTAYWPYQKDPIADAFNPATKYVATHRPDTLTWQNTQWLGEDIVAALRRLSKQDGPDLLIQRSADLIQTLLANGLIDEIRLMIFPLLLGKGKRLFGDGAMPAAFKLVKSQTSSTGVIIATYERSGEIEVGSFVMGEPSVAELERRRNWK	not soluble
GHVLLLRPVRSEDVEPLQGVFALMGPQEIRERFAPSATGSSERFQQLTNPNAKREIVLVAAEQLPPGEAMIAALARASIVPNSRHAEYIILVSSFVSGQGLGRQLLRKLVKWARGKYLDHLYGDILERNRPMLELAESLGFQRESHPESPDLVRMTLKL	not soluble
MSQLSFADVFNMAREAADNSPVIQAGQQIAEMVPTVQRMMSEQYSRSRFIRVFKDTGRHLGRWEVFSDFLSLAASELDMARIRTPESMENCRKICARYGATDIANMQEMFCLMVCALEAKFHDFLGAIFMELELGDNFRGQYFTPYSVQCLMARMLMPGVRDTIRREGIATVSDPACGAAGMLIAYAECLLEADINPSMHMFGSCIDIDPVAADMAFIQLSLLGIAAEVVTGNTLTMQYRRVRYTPVYYLNAFEKRLADLRRFRAMRDFLRGIQEAA	not soluble
MGSDKIHHHHHHMRVIPPIKSIIYFEAAARLQSFKLAAMELNVTPGAISHQISTLEDFIGKKVFERGSRRVTLTYCGLRYYSRISIILQNMEEATVDLGIEGSKPKIKIAIPPSLLKNWLLPRLVDDKLKDLNRSVEFIDTLDYLEFSKCDLDLAIRYGYDSWDNLYSVFLFHEEMIPVCHPNYFISEFTDFTQEIIDNHTLIFTNNRLVQWDIVMQYFGLERKSTQSKLIFQNSIQAIEAAIQGAGIAYVNRILVSKELSNGRLIQPFDIYMPKHKSPAYHLVSTYEHMQDEATFKLYQTILEFAKSTPHQHIVNAQAKQNAWLEHAV	not soluble
MGHHHHHHSHMTDDKDVLRDVWFGRIPTCFTLYQDEITEREAEPYYLLLPRVSYLTLVTDKVKKHFQKVMRQEDISEIWFEYEGTPLKWHYPIGLLFDLLASSSALPWNITVHFKSFPEKDLLHCPSKDAIEAHFMSCMKEADALKHKSQVINEMQKKDHKQLWMGLQNDRFDQFWAINRKLMEYPAEENGFRYIPFRIYQTTTERPFIQKLFRPVAADGQLHTLGDLLKEVCPSAIDPEDGEKKNQVMIHGIEPMLETPLQWLSEHLSYPDNFLHISIIPQPTD	not soluble
MAHHHHHHMSTYDKSDQIGYDETDHTLNAELEEMMARTPPEVQRHLQHRIHDGILQRMKEETTRKCITFIQKYEQCVNSQKPYNMKLCYPHRDAMNGCAQEVNREENYQRYRIMYLRGELLKYHEKRTAGKMEAFKVRAPDAIRAWKHDYAPKYMHIMEDLGVAPLGTAAGTAEESTNSK	not soluble
MGKIFCIVQARMGSERLQGKVIKPILKKPMVIYTLDRLKKSKYIDKIVLATSSMERETPLVESCEEYGYDVFKGSEANVLKRYEQAAEKYGANIEDAVIRVTGDCPLIDPIIVDNVVTKFLSSDYDYVRLDVPNTFVRGFDVEIFSMKALKTVNSLINGGKIPKEEADMYKEHVTLYMYKHPNEFKVGYVKGDEFYSKDYRLCVDTKEDFELVKNIYEHFNDEFVSSKNVINYLDRNSEIAQINNDIKQKEVLEHHHHHH	soluble
MAHHHHHHMDKIKSWLGFNKKIVFTENKFLLRNVNDQESLQAENVRAEDYPIPEKYLEDPDKIPKYYVFQSNMVTDEDLQPGMLRQLEVDKRLTLPTRTHISFLVTATDVIHSWSIPSLGIKADAIPGRLHKITTFILREGVYYGQCSEMCGTLHGFMPIVVEAVSPEAYAAHAKKYYKE	not soluble
MAFKGYPVIDKDGNIYAGNQDGQLYAYTSTGSLKWTFPLNGFSSSSPAIDHNGNIYIGSGSGELFSISKNGDMNWSFYTDGPVRTAPLIDAKGTVYFGSDDMKVYAADANGNELWSYQTDSNVVSSPQLAEDGTLEHHHHHH	not soluble
AQSSTDVIDQLFTALSGWFHGSEEKLGEFRGCFFINTSAEFSDDSGEIATYCRHHKQQVRELIQRYLKSDNTSLLDAICIMKEGAITTAYMTKEYDDVTKKCVEILHKL	not soluble
